Source: patent US5808025

How the values were obtained:
[1] = biological target: chimeric selectin L2P (human) (UniProt P16109)
[2] = biological target: chimeric selectin L2P3L (human) (UniProt P16109)
[3] = biological target: L-selectin (human)

lymphocytes bound/HEV (lymphocytes bound/HEV) [1]: 0.074
lymphocytes bound/HEV (lymphocytes bound/HEV) [2]: 0.08
lymphocytes bound/HEV (lymphocytes bound/HEV) [3]: 0.05
Substance: LAM1-3 mAb (antibody)
